Assay [1] deals with T1, hPD-L1-Fc (human, UniProt Q9NZQ7 20-239, limits assumed).
T1 construct: also called PDL1-Fc fusion protein; human PDL1 protein; not shown: Fc part
The assay is described as follows: BLI (Octet K2), hPD-L1-Fc on AHC sensor, sdAb variant in solution; against wild-type KN035. A general note: BLI is a label-free optical method that tracks binding on a fibre tip over time.

Assay [2] has as its target T1, hPD-L1-Fc. In words: competitive ELISA, hPD-L1-Fc coated, competitor hPD-1-hIgG-biotin 10 ug/ml; against wild-type KN035. (In general: ELISA stands for enzyme-linked immunosorbent assay.)

T1 sequence (Q9NZQ7 other isoform, or with tags, fused parts or gaps limits assumed): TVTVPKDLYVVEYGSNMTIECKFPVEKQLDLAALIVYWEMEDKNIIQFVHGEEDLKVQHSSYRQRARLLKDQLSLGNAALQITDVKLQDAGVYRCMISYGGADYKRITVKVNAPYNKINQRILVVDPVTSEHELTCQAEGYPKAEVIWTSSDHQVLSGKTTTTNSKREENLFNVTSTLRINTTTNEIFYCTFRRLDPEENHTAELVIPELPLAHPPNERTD

B1: KN035 sdAb mutant 1 (VHH)
VHH: QVQLQESGGGSVQAGGSLRLSCAASGKMSSRRCMGWFRQAPGKERVGVAAIDSDGTTKYADSMKGRFTISKDNAKNTLDLQMNSLKPEDTAMYYCVADSFEDPTCTLVTSSGAFQYRGQGTQVTVSS
notes: Expressed in HEK293, IMAC purified; not shown: C-terminal His-tag
In the assay with hPD-L1-Fc [1], B1 returned a KD/KD wt of 1.21 ratio. The “Relative blocking activity (EC50 wt/EC50 m × 100%)” value with hPD-L1-Fc [2] came out at 80%.

B2: KN035 sdAb mutant 2 (VHH)
VHH: QVQLQESGGGSVQAGGSLRLSCAASGKMSSRRCMGWFRQAPGKQRVGVATIDSDGTTRYVDSVKGRFTISKDNAKNTLDLQMNSLKPEDTAMYYCAADSFEDPTCTLVTSSGAFQYRGQGTQVTVSS
notes: not shown: C-terminal His-tag
Consider B2, for which the KD/KD wt with hPD-L1-Fc [1] was 1.73 ratio. The “Relative blocking activity (EC50 wt/EC50 m × 100%)” value with hPD-L1-Fc [2] was determined as 71%.

B3: KN035 single domain antibody mutant m3 (VHH)
VHH: QVQLQESGGGLVQPGGSLRLSCAASGKMSSRRCMAWFRQAPGKERERVADVNPNSGGSIYNQRFKGRFTISQNNAKSTVYLQMNSLKPEDTAMYYCAADSFEDPTCTLVTSSGAFQYWGQGTQVTVSS
notes: not shown: C-terminal His-tag (obtained 'by the above method')
The molecule B3 had a KD/KD wt with hPD-L1-Fc [1] of 2.01 ratio. Moreover, the “Relative blocking activity (EC50 wt/EC50 m × 100%)” value with hPD-L1-Fc [2] is 91%.
